What is called stoichiometry N is the number of molecules, sites or subunits per partner or assembly.

This test has as its target GCaMP2 (original protein with the N-terminal hexahistidine tag and RSET module) (not stated | Aequorea victoria). Nature of the test: AUC.

For the substance “GCaMP2 (original protein with the N-terminal hexahistidine tag and RSET module)”, the stoichiometry N worked out at 2.
